Paper PMC2943728

Target: DNA polymerase beta (WT pol β) (UniProt P06746 1-335)
Assay: EMSA

B1: 45AG 1-nt gapped DNA (dsDNA)
DNA 1: GCCTCGCAGCCGTCCAACCAAC
DNA 2: CAACCTCGATCCAATGCCGTCC
DNA 3: GGACGGCATTGGATCGAGGTTGAGTTGGTTGGACGGCTGCGAGGC
modifications: 5'-phosphate on downstream oligo and template
  Kd: 78 nM
